Data reported in IntAct's records for PubMed 20498078.

Columns and labels:
[1] = target: Cdh23, Q99PF4-1
[2] = target: pcd15_mouse Pcdh15 (UniProt Q99PJ1)
pcd15_mouse Pcdh15, sequence (Q99PJ1 whole entry): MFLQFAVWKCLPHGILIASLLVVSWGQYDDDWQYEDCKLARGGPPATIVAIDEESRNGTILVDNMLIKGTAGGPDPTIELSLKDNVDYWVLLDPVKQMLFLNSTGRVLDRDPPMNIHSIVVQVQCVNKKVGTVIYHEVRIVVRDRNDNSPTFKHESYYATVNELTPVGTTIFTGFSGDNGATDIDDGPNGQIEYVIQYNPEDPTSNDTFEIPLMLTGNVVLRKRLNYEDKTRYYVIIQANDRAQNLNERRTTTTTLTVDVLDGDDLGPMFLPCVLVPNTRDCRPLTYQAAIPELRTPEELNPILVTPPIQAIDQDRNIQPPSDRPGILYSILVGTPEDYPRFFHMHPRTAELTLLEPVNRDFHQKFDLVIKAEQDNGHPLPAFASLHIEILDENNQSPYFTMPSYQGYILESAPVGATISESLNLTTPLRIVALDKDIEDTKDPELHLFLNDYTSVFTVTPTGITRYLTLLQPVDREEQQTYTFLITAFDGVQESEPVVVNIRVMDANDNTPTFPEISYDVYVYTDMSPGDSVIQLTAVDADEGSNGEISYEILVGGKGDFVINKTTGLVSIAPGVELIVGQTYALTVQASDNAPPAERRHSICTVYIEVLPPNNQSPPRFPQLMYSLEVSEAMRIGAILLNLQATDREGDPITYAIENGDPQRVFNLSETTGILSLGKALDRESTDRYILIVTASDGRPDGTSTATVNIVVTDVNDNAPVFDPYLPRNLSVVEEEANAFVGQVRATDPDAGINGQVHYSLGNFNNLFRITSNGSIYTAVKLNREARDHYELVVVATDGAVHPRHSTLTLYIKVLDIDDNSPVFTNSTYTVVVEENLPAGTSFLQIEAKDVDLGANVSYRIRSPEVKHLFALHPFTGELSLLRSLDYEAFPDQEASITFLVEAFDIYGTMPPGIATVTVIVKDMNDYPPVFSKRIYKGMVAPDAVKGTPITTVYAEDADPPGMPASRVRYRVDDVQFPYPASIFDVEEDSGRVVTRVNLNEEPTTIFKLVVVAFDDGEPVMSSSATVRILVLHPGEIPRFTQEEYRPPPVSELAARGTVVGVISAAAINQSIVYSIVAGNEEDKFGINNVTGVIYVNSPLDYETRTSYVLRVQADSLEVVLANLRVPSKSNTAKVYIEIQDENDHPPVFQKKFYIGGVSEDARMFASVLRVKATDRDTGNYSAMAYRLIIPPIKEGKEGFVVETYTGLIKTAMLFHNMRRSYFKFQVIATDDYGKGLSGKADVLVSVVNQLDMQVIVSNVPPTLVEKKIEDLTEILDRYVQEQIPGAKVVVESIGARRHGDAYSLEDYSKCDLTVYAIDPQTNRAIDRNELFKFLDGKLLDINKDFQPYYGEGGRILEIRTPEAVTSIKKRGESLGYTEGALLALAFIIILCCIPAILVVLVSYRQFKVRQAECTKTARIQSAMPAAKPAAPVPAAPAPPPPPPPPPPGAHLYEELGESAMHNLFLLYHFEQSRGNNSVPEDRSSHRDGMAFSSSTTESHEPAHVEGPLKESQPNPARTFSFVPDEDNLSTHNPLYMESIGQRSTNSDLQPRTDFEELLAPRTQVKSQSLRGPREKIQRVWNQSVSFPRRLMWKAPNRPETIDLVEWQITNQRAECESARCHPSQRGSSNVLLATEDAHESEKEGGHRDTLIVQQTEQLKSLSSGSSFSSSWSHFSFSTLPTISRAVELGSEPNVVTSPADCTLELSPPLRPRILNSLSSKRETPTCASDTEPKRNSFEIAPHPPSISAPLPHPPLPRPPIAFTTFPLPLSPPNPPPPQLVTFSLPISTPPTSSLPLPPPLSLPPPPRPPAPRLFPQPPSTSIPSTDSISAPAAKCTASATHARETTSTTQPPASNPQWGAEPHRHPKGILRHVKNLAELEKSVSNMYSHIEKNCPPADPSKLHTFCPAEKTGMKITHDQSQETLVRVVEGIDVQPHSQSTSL

| Substance | effect of a mutation on the interaction [1] | effect of a mutation on the interaction [2] |
| --- | --- | --- |
| Protocadherin-15 (Mus musculus), Q99PJ1 E35I;D36A | decreasing interaction |  |
| Cadherin-23 (Mus musculus), Q99PF4-1 N26I;R27I |  | decreasing interaction |
| Cadherin-23 (Mus musculus), Q99PF4-1 R27I |  | decreasing interaction |
| Cadherin-23 (Mus musculus), Q99PF4-1 N26I |  | decreasing interaction |
